# Measured values taken from patent publication US20230416364A1 (Bristol-Myers Squibb, published 2023).
# T1: human CD25 (IL-2R alpha) on HEK-Blue IL-2 reporter cells (human, UniProt P01589 22-272)
# T1 sequence: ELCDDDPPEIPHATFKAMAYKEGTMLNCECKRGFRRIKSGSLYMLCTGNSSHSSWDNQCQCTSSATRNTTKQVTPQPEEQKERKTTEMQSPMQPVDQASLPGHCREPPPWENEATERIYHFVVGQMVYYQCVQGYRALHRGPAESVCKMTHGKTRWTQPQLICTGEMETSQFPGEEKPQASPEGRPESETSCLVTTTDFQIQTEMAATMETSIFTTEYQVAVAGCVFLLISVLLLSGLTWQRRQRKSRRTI
# B1: mouse IL-2 (ligand, UniProt P04351 21-169, looked up)
# chain: APTSSSTSSSTAEAQQQQQQQQQQQQHLEQLLMDLQELLSRMENYRNLKLPRMLTFKFYLPKQATELKDLQCLEDELGPLRHVLDLTQSKSFQLEDAENFISNIRVTVVKLKGSDNTFECQFDDESATVVDFLRRWIAFCQSIISTSPQ
# B2: anti-mPD-1 mAb 4H2 fused to mCD25 variant a (full-length mCD25 ECD) (other)
# heavy: QVQLKESGPGLVQPSQTLSLTCTVSGFSLTSYNVHWVRQPPGKGLEWMGGMRYNEDTSYNSALKSRLSISRDTSKNQVFLKMNSLQTDDTGTYYCTRDAVYGGYGGWFAYWGQGTLVTVSSAKTTPPSVYPLAPGSAAQTNSMVTLGCLVKGYFPEPVTVTWNSGSLSSGVHTFPAVLESDLYTLSSSVTVPSSTWPSETVTCNVAHPASSTKVDKKIVPRDCGCKPCICTVPEVSSVFIFPPKPKDVLTITLTPKVTCVVVAISKDDPEVQFSWFVDDVEVHTAQTQPREEQFNSTFRSVSELPIMHQDWLNGKEFKCRVNSAAFPAPIEKTISKTKGRPKAPQVYTIPPPKKQMAKDKVSLTCMITDFFPEDITVEWQWNGQPAENYKNTQPIMKTDGSYFVYSKLNVQKSNWEAGNTFTCSVLHEGLHNHHTEKSLSHSPGGGGSGGGGSGGGGSELCLYDPPEVPNATFKALSYKNGTILNCECKRGFRRLKELVYMRCLGNSWSSNCQCTSNSHDKSRKQVTAQLEHQKEQQTTTDMQKPTQSMHQENLTGHCREPPPWKHEDSKRIYHFVEGQSVHYECIPGYKALQRGPAISICKMKCGKTGWTQPQLTCVDEREHHRFLASEESQGSRNSSPESETSCPITTTDFPQPTETTAMTETFVLTMEYK
# light: DTVLTQSPALAVSLGQRVTISCKASETVSSSMYSYIHWYQQKPGQQPKLLIYRASNLESGVPARFSGSGSGTDFTLTIDPVEADDVATYFCQQSWNPWTFGGGTKLELKRADAAPTVSIFPPSSEQLTSGGASVVCFLNNFYPKDINVKWKIDGSERQNGVLNSWTDQDSKDSTYSMSSTLTLTKDEYERHNSYTCEATHKTSTSPIVKSFNRNEC
# notes: also called 4H2-mCD25 variant a; mPD1-mCD25 variant a
# B3: anti-mPD-1 mAb 4H2 fused to mCD25 variant b (other)
# heavy: QVQLKESGPGLVQPSQTLSLTCTVSGFSLTSYNVHWVRQPPGKGLEWMGGMRYNEDTSYNSALKSRLSISRDTSKNQVFLKMNSLQTDDTGTYYCTRDAVYGGYGGWFAYWGQGTLVTVSSAKTTPPSVYPLAPGSAAQTNSMVTLGCLVKGYFPEPVTVTWNSGSLSSGVHTFPAVLESDLYTLSSSVTVPSSTWPSETVTCNVAHPASSTKVDKKIVPRDCGCKPCICTVPEVSSVFIFPPKPKDVLTITLTPKVTCVVVAISKDDPEVQFSWFVDDVEVHTAQTQPREEQFNSTFRSVSELPIMHQDWLNGKEFKCRVNSAAFPAPIEKTISKTKGRPKAPQVYTIPPPKKQMAKDKVSLTCMITDFFPEDITVEWQWNGQPAENYKNTQPIMKTDGSYFVYSKLNVQKSNWEAGNTFTCSVLHEGLHNHHTEKSLSHSPGGGGSGGGGSGGGGSELCLYDPPEVPNATFKALSYKNGTILNCECKRGFRRLKELVYMRCLGNSWSSNCQCTSNSHDKSRKQVTAQLEHQKEQQTTTDMQKPTQSMHQENLTGHCREPPPWKHEDSKRIYHFVEGQSVHYECIPGYKALQRGPAISICKMKCGKTGWTQPQLTCVDEREHHRFLASEESQGSRNSSPESETSCPITTTDFPQP
# light: B2 light
# notes: also called 4H2-mCD25 variant b; mPD1-mCD25 variant b
# Columns and labels:
# [1] = target: T1, human CD25 (IL-2R alpha) on HEK-Blue …; test: cell-based or functional assay
# [2] = target: hemi-mCD25 modified anti-mPD-1 antibody 4H2 (4H2 mG1 D265A KK CD25.b+4H2 mG1 D265A blank); test: cell-based or functional assay
# [3] = target: fully mCD25 modified anti-mPD-1 antibody 4H2, (4H2 mG1 D265A KK CD25.b)2; test: cell-based or functional assay
# [4] = target: B1; test: SPR, Biacore T200, 37° C., fusion captured by anti-mouse IgG on CM4 chip, mIL-2 as analyte
# Description: Truncations of mCD25 are presented at FIG. 3A.
# Unless otherwise indicated, binding kinetics were determined with a BIACORE® SPR surface plasmon resonance spectrometer (Biacore AB, Uppsala, Sweden). […] The assay temperature was 37° C. and the running buffer was HEPES buffered saline pH 7.4 supplemented with 0.05% (v/v) Tween-20 and 1 g/L BSA. Purified mPD1−mCD25 variants were captured on a Biacore™ CM4 chip with immobilized anti-mouse IgG polyclonal capture antibody. […] Between cycles, the capture surface was regenerated for three minutes with 10 mM Glycine pH 1.7. Double-referenced sensorgrams were fitted to a 1:1 Langmuir binding model with mass transport to determine equilibrium dissociation constants (KD), as well as association (kₐ) and dissociation (kd) rate constants where appropriate.
"EC50 (read off the curve); SEAP reporter (ABS620), HEK-Blue IL-2 CD25+ cells [1] [nM]","EC50 of mIL-2 (read off the curve) with 280 pM fusion; SEAP reporter (ABS620), CD25- mPD-1+ HEK-Blue IL-2 cells [2] [pM]","EC50 of mIL-2 (read off the curve) with 2.8 nM fusion; SEAP reporter (ABS620), CD25- mPD-1+ HEK-Blue IL-2 cells [2] [nM]","EC50 of mIL-2 (read off the curve) with 260 pM fusion; SEAP reporter (ABS620), CD25- mPD-1+ HEK-Blue IL-2 cells [3] [pM]","EC50 of mIL-2 (read off the curve) with 2.6 nM fusion; SEAP reporter (ABS620), CD25- mPD-1+ HEK-Blue IL-2 cells [3] [nM]",Kd [4] [nM],Binder
~0.05,~300,~0.1,~200,~0.1,–,B1
–,–,–,–,–,14,B2
–,–,–,–,–,14,B3
